Assay results taken from publication PMC5241800, “A RuBisCO-mediated carbon metabolic pathway in methanogenic archaea” (Nature Communications, 2017).

What was measured:
[1] = target: T1, M. hungatei RuBisCO (Mh-RuBisCO) (Methanospirillum hungatei, UniProt Q2FSY4); assay: coupled PGK / GAPDH carboxylase assay, NADH at […] nm; turnover only; assay type: biochemical; conditions: 2 mM RuBP, 50 mM NaHCO3, 20 mM MgCl2, pH 8.0, 25 °C, anaerobic
T1 construct: gene rbcL; recombinant in E. coli C43 (DE3), pET-15b, His6 tag cleaved by thrombin
T1 sequence (Q2FSY4 entry or part of it): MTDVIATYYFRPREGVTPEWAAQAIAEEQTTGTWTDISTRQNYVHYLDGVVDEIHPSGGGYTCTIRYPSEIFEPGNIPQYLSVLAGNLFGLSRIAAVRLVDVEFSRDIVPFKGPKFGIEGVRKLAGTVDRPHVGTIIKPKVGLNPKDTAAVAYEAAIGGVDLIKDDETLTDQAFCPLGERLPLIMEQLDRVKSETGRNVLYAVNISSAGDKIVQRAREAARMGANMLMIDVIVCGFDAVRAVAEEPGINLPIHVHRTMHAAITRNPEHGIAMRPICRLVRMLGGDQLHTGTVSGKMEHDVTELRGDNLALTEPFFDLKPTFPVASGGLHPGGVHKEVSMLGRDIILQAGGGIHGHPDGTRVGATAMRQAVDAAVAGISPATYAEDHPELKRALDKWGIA

[2] = target: Methanospirillum hungatei phosphoribulokinase (MhPRK) (Methanospirillum hungatei); assay: crystal structure; hanging-drop vapour diffusion at 20 °C; 2.5 Å; the asymmetric unit holds two MhPRK protomers (chains A and B) related by approximately two-fold noncrystallographic symmetry
[3] = substrate: O=C(CO)[C@H](O)[C@H](O)COP(=O)(O)O; assay: purified protein; assay type: biochemical, Methanothrix thermoacetophila; conditions: co-substrate ATP (2 mM), 10 mM MgCl2, 100 mM KCl, pH 8.0, 25 °C
[4] = substrate: Nc1ncnc2c1ncn2[C@@H]1O[C@H](COP(=O)(O)OP(=O)(O)OP(=O)(O)O)[C@@H](O)[C@H]1O; assay: purified protein; assay type: biochemical, Methanothrix thermoacetophila; conditions: co-substrate Ru5P (2 mM), 10 mM MgCl2, 100 mM KCl, pH 8.0, 25 °C
[5] = substrate: O=C(CO)[C@H](O)[C@H](O)COP(=O)(O)O; assay: purified protein; assay type: biochemical, Methanospirillum hungatei; conditions: co-substrate ATP (2 mM), 10 mM MgCl2, 100 mM KCl, pH 8.0, 25 °C
[6] = substrate: Nc1ncnc2c1ncn2[C@@H]1O[C@H](COP(=O)(O)OP(=O)(O)OP(=O)(O)O)[C@@H](O)[C@H]1O; assay: purified protein; assay type: biochemical, Methanospirillum hungatei; conditions: co-substrate Ru5P (2 mM), 10 mM MgCl2, 100 mM KCl, pH 8.0, 25 °C
[7] = substrate: O=C(CO)[C@H](O)[C@H](O)COP(=O)(O)O; assay: purified protein; assay type: biochemical, Methanothrix soehngenii; conditions: co-substrate ATP (2 mM), 10 mM MgCl2, 100 mM KCl, pH 8.0, 25 °C
[8] = substrate: Nc1ncnc2c1ncn2[C@@H]1O[C@H](COP(=O)(O)OP(=O)(O)OP(=O)(O)O)[C@@H](O)[C@H]1O; assay: purified protein; assay type: biochemical, Methanothrix soehngenii; conditions: co-substrate Ru5P (2 mM), 10 mM MgCl2, 100 mM KCl, pH 8.0, 25 °C

## O=C(COP(=O)(O)O)[C@H](O)[C@H](O)COP(=O)(O)O [RuBP]
[1]
  coupled PGK / GAPDH carboxylase assay, NADH at 340 nm; turnover only: M. hungatei RuBisCO was found to have a specific activity for the carboxylase reaction

## Methanospirillum hungatei phosphoribulokinase (MhPRK) (enzyme)
[2]
  stoichiometry N: 2

B1: Methanosaeta thermophila PRK homologue (Mtprk) (Methanothrix thermoacetophila PT) (protein)
chain: MRLLEKIRESGRVFVVAVAGDSGSGKTTFTRGIRRLLGEDVVSTFSMDDYHSLDRRQRKTLGITPLRPEANRFDLLAEHLAMLRRGLAIEKPVYDHTTGEIRGPVIFKPSPVIIVEGLHPFYTEELRKLSDFKIFVDPSRAVKRRWKLRRDVGERGYAPEDVMREILEREPDYKLYVDVQKVYAEMVIKIQDSRIPPEWTEIARGSAREKYSVRIIQQILDHPLDEVDLTIDLSRIMRLTEREFSIEFQRDDYYGKRVGVMTLDGEFPLTMIKDLERKLCDFLGRDVPSVTEGCQEDHGSYVNATEMTQLILIWRFLEKIANLAW
notes: recombinant in E. coli C43 (DE3), pET15b, His6 tag, purified as MhPRK (thrombin-cleaved)
[3]
  Km: 0.23 ± 0.05 mM
[4]
  Km: 5.66 ± 0.21 µM

B2: MhPRK (M. hungatei PRK homologue) (Methanospirillum hungatei JF-1) (protein)
chain: MSQPENFREVIRHSPLVYLIGVAGDSGSGKSTFTRAISDIFGEELVSSITVDDYHLYDRKTRSEMGITPLLHTANNLKLLEENLMDLKAGRTIQKPVYLHDHGTFGEPELFSPTKFIIIEGLHPYATKSLRALYDYTIFVDPERDVKYDWKIRRDMKKRNYDKNEVLREILQREPDYFQYVFPQREVADAVIQISYSSYGKEEGEKRNVYRVMLSMPAQEYCFEDIELNIDLCDLFKKSSHDFSLSCISHTPDSRNMRALVVDGELMPDTIHKIERQIEFQTGISPINIFRGQEHITGTDLVRLILSWQIINGRIALSNHLDQ
notes: recombinant in E. coli C43 (DE3), pET-15b, His6 tag cleaved by thrombin; homodimer; residues up to 323
[5]
  Km: 0.28 ± 0.05 mM
[6]
  Km: 20.70 ± 1.70 µM

B3: Methanosaeta concilii PRK homologue (Mcprk) (Methanothrix soehngenii GP6) (protein)
chain: MRSLKDRIRESGRVFVFGIAGDSGSGKTTISRGIRRILGEDMVATFSMDDYHSLDRRQRKERNITPLHPDANQFDLLAEHLEALRRNERIDKPVYDHRTGEISGTVPFGPAPVIIVEGLHPLYTERLRSQIDFKIFVDPSRSVKRLWKIRRDVGERGYETGQVMAEILQREPDYKLYVDIQKIYAQIVIKIQDSRFHPSLLDSQSTLDWYSVRLIMEIMEHPVSEVSMNIDLSKILRRSEHEFSIEFQRDDYYGKRVGIMTMDGEIHQSMISDLEKKLGESLGTDGMISDRREEYVNAIGLAQLILTWNCVEKLDYLLQEEGY
notes: as for B1
[7]
  Km: 0.31 ± 0.08 mM
[8]
  Km: 17.91 ± 2.02 µM
